Data set [1] concerns placenta. The conditions noted are these: GST conjugates-I; 1 mouse sc (predominantly) or iv ~every other day, day 4-day 17, 10 times, Total 800 μg. An excerpt:
The CARAC peptide (SEQ ID NO:12), an adipose targeting peptide (FE, TREVHRS, SEQ ID NO:13) or fd-tet phage were used as non-placental targeting controls.

Data set [2] concerns mouse villous yolk sac (vys). Kind of data set: Peptide localization in placenta (immunohistochemistry, FITC immunofluorescence). Type of data set: in vivo. The note with it: 18 dpc pregnant mice, intravenous, 6 h.
Description: Fusion and Recombinant Peptides Carboxyfluorescein (FITC)-conjugated [sequence] […] The FITC-peptide stocks were made by dissolving lyophilized peptides in DMSO to a concentration of 20 mM, after which the peptides were diluted to 1 mM with PBS (phosphate buffered saline) and aliquots were frozen until use. The [sequence] (SEQ ID NO:144) peptide and an unrelated control peptide, [sequence] (SEQ ID NO:87), fused in-frame with GST at the amino-terminus were purified to approximately 90% purity using the BugBuster GST Bind Kit (Novagen, Madison, Wis.). Purified peptides were buffer-exchanged into PBS using Centricon PL-10 columns (Millipore, Bedford, Mass.) and the aliquots were frozen until use. […]
Peptide Localization in Tissues Immunohistochemistry on sections of formalin-fixed, paraffin-embedded mouse tissue was performed as described (Pasqualini et al., 2000; Pasqualini and Ruoslahti, 1996): For phage-peptide immunolocalization, a rabbit anti-fd phage antibody (Sigma Chemicals, St. Louis, Mo.) was used at 1:1,000 dilution and detected with a secondary horseradish peroxidase (HRP)-conjugated antibody. For GST-peptide immunolocalization, a goat anti-GST antibody (Amersham, Piscataway, N.J.) was used at 1:1,000 dilution and detected with a secondary alkaline phosphatase (AP)-conjugated antibody. […]
The subject of data set [3] is placental transporter. The data set is described as follows: Phage recovery from embryos (materno-fetal transfer). Type of data set: in vivo, mouse. The conditions noted are these: excess of co-injected peptide. The protocol:
FIG. 4. The TPKTSVT (SEQ ID NO:5) peptide specifically binds a placental transporter. (A) Recovery of indicated phage from embryos carried by 18 dpc pregnant mice intravenously injected (tail vein) with 10^10 TU of the indicated phage 6 h prior to phage recovery or immunohistochemistry. […] TPKTSVT (SEQ ID NO:5) phage were administered alone (dark cross-hatched) or co-administered with control-GST (black) or TPKTSVT (SEQ ID NO:5) linked to GST (white bar). Shown are mean+/−SEM (standard error) from different embryos. (B-D) Anti-phage IMP immunohistochemistry (arrowheads) in paraffin sections of the vys from the corresponding mice, as indicated. Asterisks mark embryonic capillaries. Bar: 20 μm.
Phage Recovery Mouse placentas and embryonic livers were individually weighed, ground with a glass Dounce homogenizer and suspended in 1 ml of Dulbecco's Modified Eagle's Medium (DMEM) containing proteinase inhibitors (DMEM-prin—1 mM PMSF, 20 μg/ml aprotinin, and 1 μg/ml leupeptin). The suspension was vortexed and washed three times with DMEM-prin. […]
The TPKTSVT (SEQ ID NO:5) Peptide Binds to a Placental Transporter The TPKTSVT (SEQ ID NO:5) peptide localizes to the vys (FIG. 3), which is the tissue primarily responsible for materno-fetal transport in mice. […] Either TPKTSVT (SEQ ID NO:5)-phage or control phage were injected into pregnant mice and the recovery of phage from embryos was determined.

The target of data set [4] is T1, FcRn/β2m receptor complex (Mus musculus, UniProt P01887+Q61559).
T1 construct: from tissue; host or cells: placenta (visceral yolk sac) of 18 dpc pregnant C57BL/6 mice, in vivo
T1 sequence (Q61559 22-365): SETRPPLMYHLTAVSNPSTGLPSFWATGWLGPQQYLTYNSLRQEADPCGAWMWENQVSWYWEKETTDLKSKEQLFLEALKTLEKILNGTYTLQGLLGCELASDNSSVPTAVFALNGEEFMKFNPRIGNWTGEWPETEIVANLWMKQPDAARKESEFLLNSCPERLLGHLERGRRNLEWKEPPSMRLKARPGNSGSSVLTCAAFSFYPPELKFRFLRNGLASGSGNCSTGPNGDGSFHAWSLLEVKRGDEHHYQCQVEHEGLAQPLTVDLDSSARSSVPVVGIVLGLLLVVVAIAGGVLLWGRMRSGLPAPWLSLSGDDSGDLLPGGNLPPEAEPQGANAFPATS
T1 sequence (P01887 21-119): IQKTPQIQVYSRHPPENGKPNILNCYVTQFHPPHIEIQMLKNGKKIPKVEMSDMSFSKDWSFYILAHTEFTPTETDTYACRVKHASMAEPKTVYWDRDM
The data set is described as follows: Placental IgG transcytosis blocking. The note with it: 18 dpc pregnant mouse, iv, 6 h. Type of data set: in vivo.
Description: A 18 dpc pregnant mouse was intravenously injected with: (A) 100 mg of control GST fusion or (B) TPKTSVT (SEQ ID NO:5) linked to GST. The IgG distribution in the placenta after 6 h of peptide circulation was detected by anti-mouse IgG immunohistochemistry in paraffin sections.
For in vivo peptide homing validation, 10 μl of FTC-peptide stocks diluted 20-fold with PBS or, 250 μl of 5 mg/ml GST-peptides were injected. For phage homing competition and IgG transcytosis blocking experiments, 500 μl of 5 mg/ml GST-peptides were administered intravenously.
For GST-peptide immunolocalization, a goat anti-GST antibody (Amersham, Piscataway, N.J.) was used at 1:1,000 dilution and detected with a secondary alkaline phosphatase (AP)-conjugated antibody. For mouse IgG immunolocalization, the ARK Peroxidase Kit (DAKO, Carpinteria, Calif.) was used. All immunohistochemistry and FITC immunofluorescence images were captured using an Olympus IX70 microscope and digital camera setup.

In data set [5] the test system is placenta. Kind of data set: Peptide embryotoxicity in pregnant mice. Type of data set: in vivo, mouse. The conditions noted are these: subcutaneous injections from ~12 dpc. An excerpt: FIG. 7. TPKTSVT (SEQ ID NO:5) peptide inhibits mouse pregnancy and is teratogenic. (A) Pregnancy courses (representative from 5 independent experiments) in mice subcutaneously injected with the indicated phage or peptides were monitored by daily weighing of the mice upon each injection (arrows). (B) Appearance of a normally developed 20 dpc embryo (left) for control GST fusion treatment compared to a representative 20 dpc embryo (right) resulting from TPKTSVT (SEQ ID NO:5) linked to GST fusion treatment. A severely teratogenic phenotype is observed with the placental targeting fusion peptide. (C) and […]) Hematoxylin/eosin staining of 20 dpc paraffin-embedded placentas derived from mice injected for 7 days with (C) control GST fusion or (D) the TPKTSVT (SEQ ID NO:5) linked to GST fusion peptide. Note hemorrhage (black asterisks), necrosis (white asterisks), and fibrosis (arrowheads). Bar: 500 μm (50 μm for insets).
Peptide Embryotoxicity For peptide embryotoxicity studies, agents were injected at the following daily doses: GST-peptides 0.1 mg (˜3 nMoles), FITC-peptides 50 μg (˜30 nMoles),and phage-peptides 10″ TU. All agents were dissolved in PBS. Mice were injected subcutaneously in the back (5-10 injections per course).
The phage or fusion peptides were subcutaneously injected and the progression of pregnancy was compared with mice injected with control phage, control peptides, or saline. Multiple injections of the TPKTSVT (SEQ ID NO:5) peptide were administered, starting at mid-pregnancy (˜12 days postconception, dpc) in doses non-toxic to the mother.

Data set [6] has as its target T2, β5 integrin (Homo sapiens, UniProt P18084).
T2 construct: Plates were coated with GST fusion proteins of the cytoplasmic domains of various integrins
T2 sequence (P18084 743-799 limits assumed): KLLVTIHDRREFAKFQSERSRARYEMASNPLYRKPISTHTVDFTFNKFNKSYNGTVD
Kind of data set: Annexin V binding to GST-β5 integrin cytoplasmic domain (ELISA, competition). The note with it: binding dependent on the buffer: low in TBS, high in cytoplasmic buffer. The protocol: FIG. 29A. Competitive binding of Annexin V to β5 integrin with VISY peptide. Binding assays were performed by ELISA.
(§1) Competitive binding assays were performed to examine the binding of Annexin V to β5 integrin and the effect of the VISY peptide. Plates were coated with GST fusion proteins of the cytoplasmic domains of various integrins and Annexin V was added to the plates. Binding of Annexin V was determined using anti-Annexin V antibodies. […] Calcium was used because Annexin V activity has been reported to be modulated by calcium. Binding of Annexin V to GST-β5 was blocked by addition of the VISY peptide (FIG. 29A).
A reciprocal study was performed, using Annexin V to coat plates and adding GST fusion proteins of integrin cytoplasmic domains. Binding was assessed using anti-GST fusion protein antibodies. […] In some studies, calcium ion appeared to interfere with the binding interaction between GST-β5 and Annexin V, with decreased binding observed in the presence of calcium (not shown).

The target in data set [7] is T3, GST-β1 (Homo sapiens, UniProt P05556).
T3 construct: Plates were coated with GST fusion proteins of the cytoplasmic domains of various integrins
T3 sequence (P05556 752-798 limits assumed): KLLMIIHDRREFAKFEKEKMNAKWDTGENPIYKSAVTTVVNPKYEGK
Kind of data set: Annexin V binding to GST-β1 integrin cytoplasmic domain (ELISA). The protocol: as §1

The target in data set [8] is T4, GST-β3 (Homo sapiens, UniProt P05106).
T4 sequence (P05106 742-788 limits assumed): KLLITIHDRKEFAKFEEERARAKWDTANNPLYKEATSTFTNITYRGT
The data set is described as follows: Annexin V binding to GST-β3 integrin cytoplasmic domain (ELISA). Here is the method:
as §1

On to “GST-PA: PA placental targeting peptide (TPKTSVT) fused to GST (glutathion S-transferase)”, for which, in data set [1], the “Peptide Effect on Embryo” value is “Pregnancy termination” and the “Pregnancy Outcome” value was “No delivery or fetuses after 21 d”. Besides, the localization in placenta result in data set [2] is given as “readily detectable in the apical cytoplasm of the vys”. Moreover, in data set [3], the “effect on materno-fetal transfer / vys uptake of TPKTSVT-phage on co-injection” value is “prevented internalization”. In addition, the “effect on placental transfer of IgG to the vys” value in data set [4] is “blocked translocation of IgG through the placenta”. The “embryos on the 20th day of pregnancy” value in data set [5] is reported as “Growth-retarded, dead, or partially resorbed embryos”. In addition, the “progression of pregnancy (weight gain)” value in data set [5] (compared to control phage or GST-peptide) is on record as “diminished weight gain”.

Consider “Annexin V: 36 kDa endogenous protein analog of the VISY peptide, GenBank GI-468888”, for which the “binding of Annexin V to GST-β5 integrin” value in data set [6] is given as “bound strongly”. Besides, the “binding of Annexin V to GST-β1 integrin” value in data set [7] is listed as “did not bind”. Further, the “binding of Annexin V to GST-β3 integrin” value in data set [8] is recorded as “did not bind”.

The values are drawn from patent US8252764B2, “Compositions and methods of use of targeting peptides against placenta and adipose tissues” (priority 2000, dated 2012).
